Residue numbers refer to the chain shown, from its start. In names and notes the source's numbering stands.
T1: recombinant hCD127 (Sino Biologicals, reference 10975-H08H) (human, UniProt P16871 21-239)
T1 construct: Bought recombinant protein; In the Blitz assay the protein is said to be captured by an Fc fragment, and a second catalogue number (11612-H08H) is printed; also called human CD127 recombinant protein; recombinant human CD127
T1 chain: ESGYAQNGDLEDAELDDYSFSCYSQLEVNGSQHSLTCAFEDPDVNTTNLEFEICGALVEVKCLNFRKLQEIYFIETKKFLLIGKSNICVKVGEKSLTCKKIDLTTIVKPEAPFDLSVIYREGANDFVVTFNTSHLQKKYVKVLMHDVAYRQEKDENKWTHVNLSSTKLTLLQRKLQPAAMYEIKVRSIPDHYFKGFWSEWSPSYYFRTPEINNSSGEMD

T2: human CD127 (IL-7Rα) on human PBMC (human, UniProt P16871 21-459)
T2 chain: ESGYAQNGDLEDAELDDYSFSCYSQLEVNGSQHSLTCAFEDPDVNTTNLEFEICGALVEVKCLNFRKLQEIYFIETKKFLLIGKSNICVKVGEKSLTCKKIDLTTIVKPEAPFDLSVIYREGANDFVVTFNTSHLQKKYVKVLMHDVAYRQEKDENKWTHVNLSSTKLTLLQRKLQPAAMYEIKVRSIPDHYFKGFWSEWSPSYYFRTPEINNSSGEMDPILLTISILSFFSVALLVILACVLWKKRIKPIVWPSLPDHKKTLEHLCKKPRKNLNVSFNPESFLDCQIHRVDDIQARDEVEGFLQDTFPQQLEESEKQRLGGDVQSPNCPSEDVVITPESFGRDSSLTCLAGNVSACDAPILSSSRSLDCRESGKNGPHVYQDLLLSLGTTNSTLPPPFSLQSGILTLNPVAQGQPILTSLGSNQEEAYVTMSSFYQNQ

T3: recombinant hCD127 (Sino Biologicals, reference 10975-H08H) (human) (UniProt P16871)
T3 sequence: T1 chain

B1: 1A11 (antibody, V domains shown)
VH: EVQLQQSGPELLKPGASMKISCKASGYSFTGYTMNWVKQSHGKNLEWIGLINPYNGVTSYNQKFKGKATLTVAKSSSTAYMELLSLTSEDSAVYYCARGDGNYWYFDVWGAGTTVTVSS
VL: EIVLTQSPAITAASLGQKVTITCSASSSVTYMHWYQQKSGTSPKPWIYEISKLASGVPVRFSGSGSGTSYSLTISSMEAEDAAIYYCQEWNYPYTFGGGTKLEIK
B2: N13B2-h3 (antibody, V domains shown)
VH: QVQLVESGGGLVKPGGSLRLSCAVSGFTLSDYYMAWIRQAPGKGLEWVSTISASGLRTYYPDSVKGRFTISRDNAKNSLYLQMNSLRAEDTAVYYCARPLSAHYGFNYFDYWGQGTLVTVSS
VL: EIVMTQSPATLSVSPGERATLSCRTSEDIYQGLAWYQQKPGQAPRLLIYSANTLHIGIPARFSGSGSGTEFTLTISSLQSEDFAVYYCQQYYDYPLAFGGGTKVEIKR
notes: also called humanized N13B2 of WO 2015/189302
B3: N13B2-hVL3 (antibody, V domains shown)
VH: B2 VH
VL: DIQMTQSPSSLSASVGDRVTITCRTSEDIYQGLAWYQQKPGKAPKLLVYSANTLHIGVPSRFSGSGSGTDYTLTISSLQPEDFATYFCQQYYDYPLAFGGGTKVEIKR
B4: N13B2-hVL5 (antibody, V domains shown)
VH: B2 VH
VL: B3 VL with F87Y
notes: also called N13B2-VL5-F87Y
B5: N13B2-hVL6 (antibody, V domains shown)
VH: B2 VH
VL: B3 VL with V48L, F87Y
notes: also called N13B2-h3VL6; N13B2-VL6-V48L-F87Y
B6: N13B2-hVL4 (antibody, V domains shown)
VH: B2 VH
VL: B3 VL with V48L
notes: also called N13B2-VL4-V48L
B7: MD707-13 (antibody, from another filing, human IgG4, V domains shown)
VH: QLKESGPGLVQPSQTLSLTCTVSGLSLPNNNIAWIRQSPGKGLEWMGVIWSNGDTDYNSAIRSRLSISRDSSKSQVFLRMNSLQSEDTAMYFCAREGMTTLDYWGQGVVVTVSS
VL: EIVLTQSPTTMAASPGEKVTITCRASSSVSYMHWFQQKSGSSPKPWIYDSSDLASGVPDRFSGSGSGTSYSLTISSMEAEDAATYYCLQRSSYPRTFGGGTKLELKR

Experiments:
[1] = target: T1, recombinant hCD127 (Sino Biologicals, …); assay: method not stated
[2] = target: T1, recombinant hCD127 (Sino Biologicals, …); assay: ELISA, hCD127 immobilized on plastic at 1 µg/ml (given as ED50)
Protocol: (§1) For activity ELISA assay, recombinant hCD127 (Sino Biologicals, Beijing, China; reference 10975-H08H) was immobilized on plastic at 1 μg/ml and dilutions of anti-CD127 antibody were added to measure binding.

[3] = target: T1, recombinant hCD127 (Sino Biologicals, …); assay: Blitz (BLI), hCD127 captured on anti-human IgG Fc (AHC) biosensor, antibody at 20 µg/mL
Protocol: Recombinant hCD127 (Sino Biologicals, Beijing, China; reference 10975-H08H)/recombinant protein (Sino Biological Cat: 11612-H08H) was immobilized at 50 μg/ml by Fc fragment into anti-human IgG Fc (AHC) biosensor (Forte Bio, 18-5063) for 30 seconds. Then, anti-CD127 antibodies were added at 20 μg/mL (saturating concentration) for an association period of 120 seconds, followed by a dissociation period of anti-CD127 antibody in kinetics buffer for 120 seconds. Data analysis was made with the Blitz pro 1.2 software, which calculated association constant (ka) and dissociation constant (kd) and determined the affinity constant KD […].

[4] = target: T2, human CD127 (IL-7Rα) on human PBMC; assay: cell-based or functional assay
[5] = target: T1, recombinant hCD127 (Sino Biologicals, …); assay: ELISA on CD127 after storage of the antibody 30 days at 4° C. (given as ED50)
Protocol: as §1
(§2) Stability of the antibodies was studies by incubating the antibodies for 7, 14, or 30 days at 4° C., 25° C. and 42° C.

[6] = target: T1, recombinant hCD127 (Sino Biologicals, …); assay: ELISA on CD127 after storage of the antibody 7 days at 4° C. (given as ED50)
Protocol: as §1, §2

[7] = target: T1, recombinant hCD127 (Sino Biologicals, …); assay: ELISA on CD127 after storage of the antibody 30 days at 25° C. (given as ED50)
Protocol: as §1, §2

[8] = target: T1, recombinant hCD127 (Sino Biologicals, …); assay: ELISA on CD127 after storage of the antibody 7 days at 25° C. (given as ED50)
Protocol: as §1, §2

[9] = target: T1, recombinant hCD127 (Sino Biologicals, …); assay: ELISA on CD127 after storage of the antibody 7 days at 42° C. (given as ED50)
Protocol: as §1, §2

[10] = target: T1, recombinant hCD127 (Sino Biologicals, …); assay: ELISA on CD127 after storage of the antibody 30 days at 42° C. (given as ED50)
Protocol: as §1, §2

[11] = target: T1, recombinant hCD127 (Sino Biologicals, …); assay: ELISA on CD127 after storage of the antibody 14 days at 4° C. (given as ED50)
Protocol: as §1, §2

[12] = target: T1, recombinant hCD127 (Sino Biologicals, …); assay: ELISA on CD127 after storage of the antibody 14 days at 25° C. (given as ED50)
Protocol: as §1, §2

[13] = target: T1, recombinant hCD127 (Sino Biologicals, …); assay: ELISA on CD127 after storage of the antibody 14 days at 42° C. (given as ED50)
Protocol: as §1, §2

[14] = target: T3, recombinant hCD127 (Sino Biologicals, reference 10975-H08H) (human); assay: method not stated

| Binder | EC50 [2] [µg/mL] | Kd [3] [nM] | koff [3] [s⁻¹] | kon [3] [M⁻¹ s⁻¹] | IC50-MFI, inhibition of IL7-induced STAT5 phosphorylation in CD3+ human PBMC [4] [µg/mL] | further results |
| --- | --- | --- | --- | --- | --- | --- |
| B1 | – | – | – | – | – | Kd [1]: 0.6 nM |
| B2 | 0.0168 | 2.33 | 0.00267 | 1.15e+06 | 0.0215 | – |
| B3 | – | – | – | – | 0.0272 | – |
| B4 | 0.0148 | 2.63 | 0.00266 | 1.01e+06 | 0.0273 | – |
| B5 | 0.0095 | 2.53 | 0.00266 | 1.05e+06 | 0.0168 | EC50 [5]: 0.047 µg/mL; EC50 [6]: 0.0553 µg/mL; EC50 [7]: 0.0402 µg/mL; EC50 [8]: 0.0478 µg/mL; Kd [1]: 0.2 nM; EC50 [9]: 0.0562 µg/mL; EC50 [10]: 0.0587 µg/mL; EC50 [11]: 0.0628 µg/mL; EC50 [12]: 0.0526 µg/mL; EC50 [13]: 0.0406 µg/mL |
| B6 | 0.0126 | 2.71 | 0.00281 | 1.04e+06 | 0.0161 | – |
| B7 | – | – | – | – | – | Kd [14]: 0.5 nM |

Source: US20190375844A1 (OSE IMMUNOTHERAPEUTICS, published 2019)
